Source: patent US20250333507A1 (SHANGHAI CELGEN BIO PHARMACEUTICAL, published 2025)

How the values were obtained:
[1] = target: full-length human TIGIT on the cell membrane (human) (UniProt Q495A1); assay: cell-based or functional assay
[2] = target: T1, mouse IL2R on CTLL-2 cells (mouse, UniProt P01590 22-268); assay: cell-based or functional assay
T1 sequence (looked up): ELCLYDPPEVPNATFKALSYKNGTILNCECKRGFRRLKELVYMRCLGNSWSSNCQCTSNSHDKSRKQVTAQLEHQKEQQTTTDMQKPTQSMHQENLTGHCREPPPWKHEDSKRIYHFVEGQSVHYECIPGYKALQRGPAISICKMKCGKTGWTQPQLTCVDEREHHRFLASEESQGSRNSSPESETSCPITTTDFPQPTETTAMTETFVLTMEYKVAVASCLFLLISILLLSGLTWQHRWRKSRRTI

[3] = target: T2, recombinant IL2Rβ subunit (Sinobio) (UniProt P14784 27-239); assay: BLI, recombinant IL2Rβ subunit
T2 construct: also called IL2β subunit
T2 sequence (looked up): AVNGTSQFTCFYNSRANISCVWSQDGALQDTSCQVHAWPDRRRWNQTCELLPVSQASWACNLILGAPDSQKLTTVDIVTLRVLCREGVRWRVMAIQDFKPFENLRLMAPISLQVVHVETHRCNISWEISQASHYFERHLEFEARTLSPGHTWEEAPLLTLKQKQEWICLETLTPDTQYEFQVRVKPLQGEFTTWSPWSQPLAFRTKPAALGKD

[4] = target: T3, IL2Rαγ (dimer) on 293F cells (human, UniProt P01589 22-272; P31785 23-369); assay: flow cytometry on 293F cells expressing IL2Rαγ
T3 construct: whole, on cells
T3 sequence (looked up) 1: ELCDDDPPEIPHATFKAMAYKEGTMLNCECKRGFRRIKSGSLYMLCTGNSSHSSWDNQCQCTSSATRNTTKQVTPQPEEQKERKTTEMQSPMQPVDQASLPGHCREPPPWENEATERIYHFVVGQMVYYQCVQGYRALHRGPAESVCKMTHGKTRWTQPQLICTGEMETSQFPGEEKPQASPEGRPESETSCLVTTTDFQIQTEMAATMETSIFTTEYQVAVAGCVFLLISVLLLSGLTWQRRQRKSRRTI
T3 sequence (looked up) 2: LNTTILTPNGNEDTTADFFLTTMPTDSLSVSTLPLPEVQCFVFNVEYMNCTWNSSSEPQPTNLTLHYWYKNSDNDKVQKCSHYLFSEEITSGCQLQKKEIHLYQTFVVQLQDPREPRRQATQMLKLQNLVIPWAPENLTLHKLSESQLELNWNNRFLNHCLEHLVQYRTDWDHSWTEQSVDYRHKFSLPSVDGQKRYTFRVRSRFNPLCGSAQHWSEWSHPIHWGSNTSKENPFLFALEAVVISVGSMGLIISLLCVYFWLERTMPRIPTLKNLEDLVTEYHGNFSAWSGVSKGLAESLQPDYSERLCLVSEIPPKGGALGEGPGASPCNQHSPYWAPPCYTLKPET
Description: First, human IL2Rα, IL2Rβ, and IL2Rγ expression plasmids (Sinobio) were co-transfected into 293F cells to transiently express the following IL2R complexes: IL2Rαβγ (trimer), IL2Rαγ (dimer), and IL2Rβγ (dimer). The expression of the respective IL2R subunits on the cell membrane was detected using antibodies against IL2Rα, IL2Rβ, and IL2Rγ.
Then, the binding activity of KD5201F, KD5201E, and control protein-1 to the 293F cells expressing the two types of IL2R complexes (αγ and βγ) was detected using flow cytometry.

mouse TIGIT = target: T4, mouse TIGIT (mouse, UniProt P86176 29-148, limits assumed); assay: not described
T4 sequence (looked up): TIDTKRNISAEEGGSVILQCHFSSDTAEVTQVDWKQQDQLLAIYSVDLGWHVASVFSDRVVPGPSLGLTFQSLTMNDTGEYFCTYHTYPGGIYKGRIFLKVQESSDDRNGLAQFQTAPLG

[5] = target: T5, recombinant human TIGIT (Human TIGIT His, Sino Biological, 10917-H08H) (human, UniProt Q495A1 22-138); assay: ELISA, recombinant human TIGIT-His coated
T5 construct: range 1-138; Bought reagent; also called recombinant human TIGIT antigen; recombinant human TIGITE-HIS; not shown: C-terminal histidine tag
T5 sequence (looked up): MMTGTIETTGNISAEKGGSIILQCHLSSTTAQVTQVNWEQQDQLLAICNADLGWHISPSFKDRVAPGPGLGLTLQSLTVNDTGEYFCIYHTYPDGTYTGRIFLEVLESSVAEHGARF
Description: The activity of TIGIT antibody-IL2 fusion protein binding TIGIT of the present disclosure in vitro was detected using ELISA. The ELIS was conducted as follows: coated with 50 μl of NaHCO₃(pH9.6) buffer containing […] recombinant human TIGITE-HIS overnight at 4° C.; on the next day, washed twice with PBS, followed by blocking with 3% BSA, 100 μL per well; incubated at 37° C. for 1.5h, and washed with PBST for 4 times. TIGIT antibody-IL2 fusion protein was diluted in a gradient with a binding solution (TBST containing 1% BSA), and added into the blocked and washed ELISA plate (50 μl per well), and incubated at 37° C. for 2 h. After washing with PBST for 4 times, a certain proportion of diluted anti-HFC (Jackson Immuno Research) labeled with alkaline phosphatase was added to each well and incubated at 37° C. for 1.5h. Finally, after washing with PBST for 4 times, PNPP color developing solution was added and incubated at 37° C. for 10-15 min, followed by reading on a microplate reader (wavelengths 405 nm and 490 nm). Human TIGIT monoclonal antibody P03479 was used as positive control.

[6] = target: T6, full-length human TIGIT on the cell membrane (human, UniProt Q495A1 22-244); assay: flow cytometry on CHO-K cells expressing human TIGIT
T6 construct: whole, on cells; the cell is named under assay or readout; also called CHO-K-TIGIT; CHO-TIGIT
T6 sequence (looked up): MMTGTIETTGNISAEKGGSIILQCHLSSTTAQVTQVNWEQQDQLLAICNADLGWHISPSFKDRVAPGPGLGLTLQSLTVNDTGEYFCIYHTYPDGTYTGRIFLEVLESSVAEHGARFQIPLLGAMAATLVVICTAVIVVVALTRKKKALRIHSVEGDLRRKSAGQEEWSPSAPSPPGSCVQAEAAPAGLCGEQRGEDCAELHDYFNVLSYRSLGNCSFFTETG
Description: The flow cytometry method to study the binding of TIGIT antibodies to TIGIT protein on the cell membrane is briefly described as follows: Firstly, FACS buffer was prepared, which was a 1×PBS solution with 0.5% BSA. The required number of CHO-K-TIGIT cells, approximately 1×10⁵ to 5×10⁵ cells per sample, was taken and suspended in FACS buffer. […] The cells were incubated in a refrigerator at 4° C. for 30 minutes, washed once with FACS buffer, and then resuspended in FITC-conjugated anti-human IgG (Abcam: 6854) diluted in FACS buffer. The cells were incubated again in a refrigerator at 4° C. for 30 minutes. Finally, after washing the cells with FACS buffer, the cells were resuspended in 200 μL of FACS buffer for analysis, and subjected to detection.

[7] = target: T6, full-length human TIGIT on the cell …; assay: flow cytometry on Jurkat cells expressing human TIGIT
Description: The binding activity of the anti-TIGIT antibody-IL2 fusion proteins to TIGIT on the cell membrane was tested using flow cytometry. A Jurkat cell line stably expressing human TIGIT was first established. The full-length human TIGIT gene (Sinobio) was amplified by PCR and cloned into the mammalian cell expression vector pcDNA3.1 (Invitrogen), using Not I and Xba I as cloning enzymes. The TIGIT expression plasmid was transfected into Jurkat cells to construct a stable Jurkat cell line expressing TIGIT (TIGIT-Jurkat).
The flow cytometry study method for the binding of TIGIT antibody-IL2 fusion proteins to cell membrane-bound TIGIT is summarized as follows: FACS buffer (1×PBS+0.5% BSA solution) was prepared. The required number of TIGIT-Jurkat cells, about 1×10⁵ to 5×10⁵ cells per sample, was taken and incubated with TIGIT antibody-IL2 fusion protein diluted to a certain ratio in FACS buffer, approximately 100 μL, at 4° C. for 30 minutes. After washing the cells once with FACS buffer, they were resuspended in FITC-conjugated anti-human IgG (Abcam: 6854) diluted in FACS buffer and incubated at 4° C. for 30 minutes. Finally, after washing the cells with FACS buffer, they were resuspended in 200 μL of FACS buffer for analysis. The parent TIGIT antibody P03479 was used as a control.
The results were consistent with those obtained by binding recombinant TIGIT in vitro (Example 6).

[8] = target: T5, recombinant human TIGIT (Human TIGIT …); assay: competition ELISA, TIGIT-His coated, competitor CD155-mFC
Description: To determine whether human-mouse chimeric and humanized TIGIT monoclonal antibodies can inhibit the binding between CD155 and TIGIT, an in vitro ELISA assay was conducted. Tiragolumab was used as a positive control. […] The next day, after washing twice with PBS, the wells were blocked with 3% BSA, 100 μL per well, and incubated at 37° C. for 1.5 hours, followed by washing 4 times with PBST. Gradient diluted TIGIT monoclonal antibodies and CD155-mFC (6 μg/mL) (Human CD155 (Fc Tag): Sino Biological, 10109-H02H) were mixed in equal volumes and added to the blocked and washed microplate and incubated at 37° C. for 2 hours, followed by 4 washes with PBST. Subsequently, a diluted secondary antibody HRP-conjugated anti-mFC (Jackson Immuno Research, 115-035-164) was added and incubated at 37° C. for 1.5 hours. After washing 4 times with PBST, TMB coloring solution was added, and the plate was incubated at 37° C. for 10-15 minutes before reading on a microplate reader (wavelengths 450 nm and 655 nm).
As shown, all TIGIT monoclonal antibodies could specifically block the binding between TIGIT and CD155.

## Tiragolumab (antibody)
[1]
  IFNγ release from PHA-activated PBMCs, increase over the blank: 16%

B1: KD5201E, HC(DANG)-IL2mut-1/LC(ART-Ig) anti-TIGIT antibody-IL2 fusion protein (other)
heavy 1: EVQVVESGGGLVKPGGSLRLSCAASGFTFSTYAMSWVRQAPGKGLEWVAEISSGGSHTFYADTVKGRFTISRDNAKNTLYLQMNSLRAEDTAVYYCARKTLDYYALDYWGQGTTVTVSSASTKGPSVFPLAPSSKSTSGGTAALGCLVKDYFPEPVTVSWNSGALTSGVHTFPAVLQSSGLYSLSSVVTVPSSSLGTQTYICNVNHKPSNTKVDKKVEPKSCDKTHTCPPCPAPELLGGPSVFLFPPKPKDTLMISRTPEVTCVVVAVSHEDPEVKFNWYVDGVEVHNAKTKPREEQYGSTYRVVSVLTVLHQDWLNGKEYKCKVSNKALPAPIEKTISKAKGQPREPQVYTLPPSRKEMTKNQVSLTCLVKGFYPSDIAVEWESNGQPENNYKTTPPVLDSDGSFFLYSKLTVDKSRWQQGNVFSCSVMHEALHNRYTQKSLSLSPGGGGGSGGGGSGGGGSAPTSSSTKKTQLQLEHLLLDLQMILNGINNYKNPKLTRMLTAKFYMPKKATELKHLQCLEEELKPLEEVLNLAQSKNFHFDPRDVVSNINVFVLELKGSETTFMCEYADETATIVEFLNRWITFCQSIISTLT
heavy 2: EVQVVESGGGLVKPGGSLRLSCAASGFTFSTYAMSWVRQAPGKGLEWVAEISSGGSHTFYADTVKGRFTISRDNAKNTLYLQMNSLRAEDTAVYYCARKTLDYYALDYWGQGTTVTVSSASTKGPSVFPLAPSSKSTSGGTAALGCLVKDYFPEPVTVSWNSGALTSGVHTFPAVLQSSGLYSLSSVVTVPSSSLGTQTYICNVNHKPSNTKVDKKVEPKSCDKTHTCPPCPAPELLGGPSVFLFPPKPKDTLMISRTPEVTCVVVAVSHEDPEVKFNWYVDGVEVHNAKTKPREEQYGSTYRVVSVLTVLHQDWLNGKEYKCKVSNKALPAPIEKTISKAKGQPREPQVYTLPPSREEMTKNQVSLTCLVKGFYPSDIAVEWESNGQPENNYKTTPPVLDSDGSFFLYSKLTVDKSRWQQGNVFSCSVMHEALHNHYTQESLSLSPG
light: DVQITQSPSYLSASVGDRVTINCRASKSISKYLAWYQQKPGKAPKLLIYSGSRLQSGIPSRFSGSGYGTDFTLTISSLQPEDFATYYCQQHNEYPWTFGGGTKLEIKRTVAAPSVFIFPPSDEQLKSGTASVVCLLNNFYPREAKVQWKVDNALQSGNSQESVTEQDSKDSTYSLSSTLTLSKADYEKHKVYACEVTHQGLSSPVTKSFNRGEC
notes: IL2mut-1 = F42A/L80F/R81D/L85V/I86V/I92F on the C-terminus of one heavy chain; Fc with D265A/N297G; also called HC1(DANG)-IL2mut/LC1(ART-Ig); HC1-IL2mut/LC1 (ART-Ig)
[2]
  EC50 of stimulating CTLL-2 cell growth (CCK-8): 0.0153 µg/mL
[3]
  Kd: ~8.2 nM
[4]
  binding result: binds

B2: humanized anti-human TIGIT monoclonal antibody P03479 (7103-07 huVH2VL1) (antibody, V domains shown)
VH: EVQVVESGGGLVKPGGSLRLSCAASGFTFSTYAMSWVRQAPGKGLEWVAEISSGGSHTFYADTVKGRFTISRDNAKNTLYLQMNSLRAEDTAVYYCARKTLDYYALDYWGQGTTVTVSS
VL: DVQITQSPSYLSASVGDRVTINCRASKSISKYLAWYQQKPGKAPKLLIYSGSRLQSGIPSRFSGSGYGTDFTLTISSLQPEDFATYYCQQHNEYPWTFGGGTKLEIK
notes: The constant region is described as IgG1 gamma in the embodiments; also called parent TIGIT antibody P03479
Mouse TIGIT
  binding result: no binding
[5]
  EC50: 0.0184 µg/mL
[6]
  EC50: 0.144 µg/mL
[7]
  EC50: 0.0315 µg/mL
[8]
  IC50: 0.107 µg/mL
